Measurements taken from US7264809B1, “Methods of inhibiting platelet activation and recruitment” (Immunex Corporation, priority 1998, dated 2007).

Key:
[1] = Phosphate release assay for ATPase activity; format: biochemical; details: for ATPase activity, CPM × 10^3 (net counts): Table 3, 5-day 1× COS-1 sups
Protocol: This example describes an ATPase assay that may be used to track enzyme activity. Samples (approximately 100 μl of either concentrated CM or purified polypeptide) are combined with 20 μl of 10× assay buffer (200 mM HEPES, 1.2 M NaCl, 50 mM KCl, 15 mM CaCl2, 15 mM MgCl2 and 3 mM ATP) and sterile water is added to a final volume of 200 μl. Radiolabeled ATP (0.8 μCi γ [^32P] ATP; Amersham, Arlington Heights, Ill.) is added and the mixture incubated for 20 minutes at 37° C. […] After centrifugation (14K rpm for 10 minutes), the supernatant is assayed for free ^32P using a scintillation counter. Data are expressed as raw counts or net counts, or as picomoles of ATP degraded per minute. […] The transfections were repeated and the CM (10, 20 and 30 μL, unconcentrated) was assayed essentially as described in Example 7. […] ATPase levels in CM from COS-1 cells transfected with pIL2LFlagSolCD39 increased with time in culture over at least 4 days post-transfection. To determine whether activity was affected by removal of the N-terminal FLAG® tag, COS-1 cells were transfected with pIL2LFlagSolCD39 and pIL2LSolCD39 and supernatants (sups) were harvested after 5 days. Samples of 10, 20 and 30 μL of 1× sups were assayed for ATPase activity as described in Example 7. […] The expression of Trim1 and Trim2 constructs was analyzed in COS-1 cells cultured in 10 cm plates. After 5 days of incubation, 1× supernatants were examined via ELISA (using anti-CD39) and the phosphate-release assay described in Example 7. […] Expression levels, however, appeared to be reduced 3-4 fold.

[2] = system: injured coronary artery segments; assay: Percutaneous transluminal coronary angioplasty (balloon injury) study
Description: Porcine platelets and fibrinogen were labeled with ^111Indium and ^125Iodine respectively for infusion into pigs. […] Oral ASA was given to all pigs for at least three day prior to the coronary angioplasty procedure, and heparin (100 U/kg) was given at the time of the angioplasty. One to three days prior to the angioplasty an external jugular line was inserted to administer the labeled platelets and fibrin, CD39 or saline, and to facilitate blood draws. Labeled platelets and fibrinogen were given approximately 18 hours prior to balloon injury. Coronary arteries were injured using an oversize balloon. A coronary guide catheter was first advanced into the ascending aorta. An oversized balloon was then advanced into a coronary vessel and inflated at 6 to 8 atmospheres for a total of thirty seconds. The balloon was then deflated and withdrawn. The average ratio of balloon size to vessel size was 1.32 for the placebo group and 1.29 for the CD39 group.
Platelet aggregation and bleeding time were measured 30 minutes after administration. […] Moreover, no bleeding was noted during PTCA or after sheath removal and there was no significant difference in hematocrit or platelet counts between the groups.
After the radioactivity decayed, toluidine-blue stained injured coronary artery segments were examined histologically, in order to further characterize the extent of thrombus formation. A blinded observer qualitatively evaluated the degree of histologic injury in the coronary segments by assessing, on a scale of 1-4 with 4 being the most severe injury, the severity of medial and internal elastic lamina tear, medial separation, and hemorrhage. A composite injury score was obtained by totaling, the three individual scores. The medial injury scores for the placebo and CD39 groups were 2.5 and 2.2 respectively; medial separation scores for the placebo and CD39 groups were 2.0 and 1.6 respectively; the degree of hemorrhage for the placebo and CD39 groups were 2.3 and 2.5 respectively. The composite injury scores for the placebo and CD39 groups were […] and 6.2 respectively. These in vivo results correlate well with results, reported herein, obtained in vitro and ex vivo.

[3] = TLC assay for ADPase activity; format: biochemical
Protocol: Following growth in selective medium, CM from CHO cell cultures was analyzed for ATPase and ADPase activities. ADPase assays (Marcus et al., J. Clin. Invest. 88:1690, 1991) were primarily used in determining enzyme kinetics and pharmacokinetics. Test samples were incubated with 50 μM [^14C] ADP (NEN Life Science Products) in assay buffer (15 mM Tris, 134 mM NaCl, 5 mM glucose, pH 7.4, containing 10 μM Ap5A (P^1,P^5-di[adenosine-5′]pentaphosphate, 1 mM ouabain, 10 μM dipyridamole, and 3 mM CaCl2) in a total volume of 50 μl (5 min, 37° C.). Reactions were stopped by placement on ice and addition of 10 μl “stop solution” (160 mM disodium EDTA, pH 7.0, 17 mM ADP, 0.15 M NaCl) to block further metabolism of ADP. Nucleotides, nucleosides, and bases were separated by TLC using isobutanol/1-pentanol/ethylene glycol monoethyl ether/NH4OH/H2O (90:60:180:90:120). Radioactivity was quantified by radio TLC scanning (RTLC multiscanner; Packard, Meriden, Conn.). Results were calculated as averages of duplicate to quadruplicate measurements after subtraction of buffer blanks (consistently <1% of total radioactivity). Data were expressed as percentage of ADP metabolized or as pmol ADP metabolized per minute per μl CM. A unit of activity is the quantity of enzyme which will degrade 1 μmol of ADP in 1 min at 37° C. Identical assays were performed using ATP as a substrate in order to examine the kinetics of the ATPase activity of CD39.
Using the TLC assay system described in Example 12B, the ADPase activity of the membrane-bound HUVEC ecto-ADPase was determined at different pHs in buffers containing 100 mM bis-trispropane (Sigma, St. Louis, Mo.). […] Kinetic constants for CD39 metabolism of ATP and ADP were determined by measuring the initial rates of reaction as analyzed in the TLC system.

[4] = Mouse lung ischemia-reperfusion survival model; format: in vivo, C57BL/6 mice; details: 8 mg/kg i.v.
Protocol: C57BL/6 mice were anesthetized and ventilated, and their thoraces were opened to surgically expose both pulmonary hila. Either physiological saline or soluble CD39 (8 mg/kg) was administered intravenously, after which the left pulmonary hilum was cross-clamped for one hour. The cross-clamp was removed for three hours of reperfusion, and then a cross-clamp was applied to the right hilum for a thirty minute observation period. This latter maneuver effectively removed the normal lung from circulation, so that the mouse must survive on the function of the post-ischemic left lung. The results are shown, in the form of a Kaplan-Meier survival plot, in FIG. 23.

[5] = 670 μg/kg i.v. plus heparin and ASA, 24 hours after balloon injury

B1: solCD39: recombinant soluble human CD39, untagged: 12 mature huIL2 residues, three amino acid linker, sol CD39 (SEQ ID NO:7) (protein)
chain: MALWIDRMQLLSCIALSLALVTNSAPTSSSTKKTQLTSSTQNKALPENVKYGIVLDAGSSHTSLYIYKWPAEKENDTGVVHQVEECRVKGPGISKFVQKVNEIGIYLTDCMERAREVIPRSQHQETPVYLGATAGMRLLRMESEELADRVLDVVERSLSNYPFDFQGARIITGQEEGAYGWITINYLLGKFSQKTRWFSIVPYETNNQETFGALDLGGASTQVTFVPQNQTIESPDNALQFRLYGKDYNVYTHSFLCYGKDQALWQKLAKDIQVASNEILRDPCFHPGYKKVVNVSDLYKTPCTKRFEMTLPFQQFEIQGIGNYQQCHQSILELFNTSYCPYSQCAFNGIFLPPLQGDFGAFSAFYFVMKFLNLTSEKVSQEKVTEMMKKFCAQPWEEIKTSYAGVKEKYLSEYCFSGTYILSLLLQGYHFTADSWEHIHFIGKIQGSDAGWTLGYMLNLTNMIPAEQPLSTPLSHST
ATPase activity, CPM × 10^3 (net counts) ([1]; 10 μL): 20.1 CPM × 10^3
ATPase activity, CPM × 10^3 (net counts) ([1]; 20 μL): 36.0 CPM × 10^3
ATPase activity, CPM × 10^3 (net counts) ([1]; 30 μL): 51.0 CPM × 10^3
Activity (pmol ATP/min/μg) × 10^3 ([1]; specific activity in COS-1 CM, concentration by ELISA): 5.67 (pmol ATP/min/μg) × 10^3
Fibrin Deposition Ratio [2, 5]: 0.62 ± 0.10
Platelet Deposition Ratio [2, 5]: 1.25 ± 0.19
Bleeding Time ([2]; 30 minutes after administration): 7.00 ± 0.81
medial injury score ([2]; histology, scale of 1-4): 2.2
medial separation score ([2]; histology, scale of 1-4): 1.6
degree of hemorrhage ([2]; pig, in vivo): 2.5
tolerability ([2]; pigs, PTCA): well tolerated
composite injury score ([2]; total of three scores): 6.2
Vmax for ADP ([3]; 2×10^−9 M solCD39): 72 pmol/min
kcat (ADP) ([3]; 2×10^−9 M solCD39): 12 s⁻¹
specific activity for ADP ([3]; purified recombinant solCD39): 11 U/mg
survival at thirty minutes on post-ischemic lung [4]: survived
